B1: 5 kDa-PEG-Cys(37)-GLP-1 (peptide)
peptide: HAEGTFTSDVSSYLEGQAAKEFIAWLVKGRC
modifications: 5 kDa cysteine-reactive maleimide-PEG on the added Cys at position 37
notes: range 27-56; also called 5 kDa-PEG-GLP-1 (Cys analog); C-terminally PEGylated GLP-1

Assays:
GLP-1 receptor = biological target: T1, GLP-1 receptor (Homo sapiens, UniProt P43220); experiment: Cell-based GLP-1 receptor assay, intracellular calcium mobilization in CHO-K1/GLP1/Gα15 (FlexStation); details: Calcium-4
T1 construct: expressed in transfected cells; host or cells: CHO-K1/GLP1/Gα15
T1 sequence (P43220 24-463, species assumed): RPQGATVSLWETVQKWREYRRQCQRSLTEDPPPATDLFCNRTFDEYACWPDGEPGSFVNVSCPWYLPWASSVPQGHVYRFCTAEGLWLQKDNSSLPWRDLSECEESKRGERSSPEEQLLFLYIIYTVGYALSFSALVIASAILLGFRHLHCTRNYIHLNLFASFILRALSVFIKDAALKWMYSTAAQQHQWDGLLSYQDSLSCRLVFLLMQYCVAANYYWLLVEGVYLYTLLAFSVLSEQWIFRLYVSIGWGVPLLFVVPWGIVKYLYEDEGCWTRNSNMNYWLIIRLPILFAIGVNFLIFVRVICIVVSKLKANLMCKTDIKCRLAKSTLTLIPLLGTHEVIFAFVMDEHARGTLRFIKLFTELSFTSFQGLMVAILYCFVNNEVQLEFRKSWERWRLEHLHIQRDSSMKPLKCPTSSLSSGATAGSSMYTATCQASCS
Procedure: The intracellular calcium change was measured by FlexStation. […] A lower EC50 indicates a higher activity.

[1] = biological target: T2, GLP-1 receptor (covalently immobilized on the Biacore biosensor surface) (UniProt P43220 24-145, limits assumed); experiment: Biacore (SPR), GLP-1 receptor covalently immobilized, peptide injected
T2 construct: also called the receptor

[2] = biological target: GLP-1 receptor on CHO-K1/GLP1/Gα15 cells (UniProt P43220); experiment: cell-based or functional assay
Chain of GLP-1 receptor on CHO-K1/GLP1/Gα15 cells (P43220 24-463 limits assumed): as the sequence (P43220 24-463, species assumed) above

| Molecule | EC50 (GLP-1 receptor) | Kd [1] | EC50 of intracellular calcium mobilization (Calcium-4, FlexStation RFU) [2] |
| --- | --- | --- | --- |
| 5 kDa-PEG-Cys(37)-GLP-1 (HAEGTFTSDVSSYLEGQAAKEFIAWLVKGRC) | 336 nM |  |  |
| B1 |  | 1600 nM | 336 nM |

— US20160151511A1, “PROTEINS AND PROTEIN CONJUGATES WITH INCREASED HYDROPHOBICITY” (priority 2014, published 2016)
